Reference: the DeepSol protein solubility set

Experiment: soluble on expression in E. coli; label from the status in PepcDB or PDB records

Sequence	soluble on expression in E. coli
MHAYLHCLSHSPLVGYVDPAQEVLDEVNGVIASARERIAAFSPELVVLFAPDHYNGFFYDVMPPFCLGVGATAIGDFGSAAGELPVPVELAEACAHAVMKSGIDLAVSYCMQVDHGFAQPLEFLLGGLDKVPVLPVFINGVATPLPGFQRTRMLGEAIGRFTSTLNKRVLFLGSGGLSHQPPVPELAKADAHMRDRLLGSGKDLPASERELRQQRVISAAEKFVEDQRTLHPLNPIWDNQFMTLLEQGRIQELDAVSNEELSAIAGKSTHEIKTWVAAFAAISAFGNWRSEGRYYRPIPEWIAGFGSLSARTEN	not soluble
QLNQILRAANLHSFAVANLRQVEHATRPTKTMSAGLTIINVPAFYSSQHQLQKQYWTQLQHLIKQTKPTTDLILNFAANTGGSSAPMIAGLAAIIPDGTIYTGITNHHRNRPRMMYHGRITGGLGQDDVNFSQPTAAHFRHIYAIIGNQTASAAEVTIMALKRNPHVTLVGRSSAGYTSLNGGVFLNTAVAVMTIGTLKATVKIHGQQYFNNQPLKPDIPTLYQPLAPLQLGQSPHLDADFLSELRTIMKHYH	not soluble
MAKKPSKKKVKRQVASGRAYIHASYNNTIVTITDPDGNPITWSSGGVIGYKGSRKGTPYAAQLAALDAAKKAMAYGMQSVDVIVRGTGAGREQAIRALQASGLQVKSIVDDTPVPHNGCRPKKKFRKAS	soluble
MGHHHHHHSHMSVHKLTDLRDNSTNWKINVKILSIWNHPPNSHGEITTMILHDDKNNRVDATIPQGNYHNPFCPFLKPGTWIHISDFRVVVPQSRVRYSSFRFHIKFIWETSVHPLPELVKRDFFD	not soluble
MGSDKIHHHHHHMRYRKLSDYLKERYGERVQRIVIHGGFSCPNRDGTKGKGGCIYCDATGSGFTTLMRLPIREQVMEMKKKYEKRGIKKFIAYFQSFSNTYAPVEMLRERYEEALVDDSIVQLSVSTRPDLVPERVLDLFEEFKKRVDVSVELGLQTANYRTLKKINRGHTLAEFVDAAVRVKKRGIELVVHVILNLPWDDMEDVVETAKILSALDVDGVKLHSLYVVEGTKLAEMYKKGEVKICSLEEYIDRAITFLEYLSPNVVIHRLVADPPRKGTIFGNWGKSKIEIINMIEEELERRDTYQGKKFDYLNR	not soluble
MGSDKIHHHHHHMDTIGRRLDMGKRIVLADPRGFCAGVDRAILTVRTILKSADTPRADGLPPVYVRRQIVHNKHVVEDLAAQGAVFVQELAEIPDAAAEAGIPIVFSAHGVSPAVKAEATARGMHVVDATCPLVSKVHREVLRFVKEGYEIIYIGHKGHDEAVGVVEESPEHVHLIEHASDVDSLDFQPDTKLVLLTQTTLSVDETAGTITALKARFPWLEMPPNSDICYATSNRQAAVKLVAEQADCVVIVGSANSSNSVRLMEVAQEGLSARYASKTAVGAAGRAHRVDDASELDPAWFEGVESVGISSGASVPDELVSGVVAALQELGYQDVSTIETIKENMHFVLPAELRK	not soluble
MSMPATSTKTTKLATSLIDEYALLGWRAMLTEVNLSPKPGLVDRINCGAHKDMALEDFHRSALAIQGWLPRFIEFGACSAEMAPEAVLHGLRPIGMACEGDMFRATAGVNTHKGSIFSLGLLCAAIGRLLQLNQPVTPTTVCSTAASFCRGLTDRELRTNNSQLTAGQRLYQQLGLTGARGEAEAGYPLVINHALPHYLTLLDQGLDPELALLDTLLLLMAINGDTNVASRGGEGGLRWLQREAQTLLQKGGIRTPADLDYLRQFDRECIERNLSPGGSADLLILTWFLAQI	not soluble
MTKIAFTGGGTVGHVSVNLSLIPTALSQGYEALYIGSKNGIEREMIESQLPEIKYYPISSGKLRRYISLENAKDVFKVLKGILDARKVLKKEKPDLLFSKGGFVSVPVVIAAKSLNIPTIIHESDLTPGLANKIALKFAKKIYTTFEETLNYLPKEKADFIGATIREDLKNGNAHNGYQLTGFNENKKVLLVMGGSLGSKKLNSIIRENLDALLQQYQVIHLTGKGLKDAQVKKSGYIQYEFVKEDLTDLLAITDTVISRAGSNAIYEFLTLRIPMLLVPLGLDQSRGDQIDNANHFADKGYAKAIDEEQLTAQILLQELNEMEQERTRIINNMKSYEQSYTKEALFDKMIKDALN	not soluble
MVIATDDLETTCPNCNGSGREEPEPCPKCLGKGVILTAQGSTLLHFIKKHIHE	soluble
MSLNNVKLLIAGSAFFAMSAQAADRVSIDVKVTLEAAACTPILSNGGVVNFGSHSVNRLSTQHYTQIGTRNINMTITCESATGIAITARDTRMDSMTTGKDSGGQSGVKYTLNGGGYISQTTRLFGLGKTKDNKNIGSYAVLIDSNNISASNGSQTLAVSIAGADAVITGQKRAWQTLTAYPLAVDQSYYYTFVKPGETTPTPVTNAIIPLQVSASIANDLGGSEKIELDGKAVISVVYLEGHHHHHH	not soluble
MSLKPIIPEDERSKEPLDTDRVIYHPDMIRANEWVLNEYEAPYRELCIFVPCAKRKPYHESPSHKKFDRIIFGIAKPEDVHIVTFGTCGITPRELDTQYPFMHYSFMMGKCNVAKIKRDFIKMESERLAAYLEKTRDNYKHRIAYCIGDFRTAMEKAVEMVDVEVDIVPRESTIQKMIQPDKPFIYNSLSSREYLQDFSDAITDALKLPKRKVGLKEDLSVDDADWYLLEGHHHHHH	soluble
SMMDLFETGSYFFYLDGENVTLQPLEVAEGSPLYPGSDGTLSPCQDQMPPEAGSDSSGEEHVLAPPGLQPPHCPGQCLIWACKTCKRKSAPTDRRKAATLRERRRLKKINEAFEALKRRTVANPNQRLPKVEILRSAISYIERLQDLLHRLDQQEKMQELGVDPFSYRPKQENLEGADFLRTCSSQWPSVSDHSRGLVITAKEGGASIDSSASSSLRCLSSIVDSISSEERKLPCVEEVVEK	soluble
MFPLNFHYEDVLRQDLLLKLNYANVMEVPGLCEIRVVPKAPYNFIIKNGKLAMEIPCGQKFIQTQRGSTGKSFRSNPFLGSNKDKGYVSDLARQSTLRGHGMSNFLVRILTVMSLLDFPVEIRKNSIQFSMETEFCEFSPELEDHFEIFEHIRGFNVTIITSANTQDETLLLWSGFLQKDEGETQLEHHHHHH	not soluble
MLSSKTFLNLVRTSRCRMSSSFAPKPAERTAQHSASIWVEFTTLAAETKAVNLGQGFPDSPAPKFVTDLLENLSKHPELTAAHQYTRGYGHPMLVDILAKMYSHFYNVQVDPMNEVLVTVGAYLSLYYAFLGWVNKGDEVLIIEPAYDCYYPQVKFAGGVPVPVVMNLAEGATSASQFTIDFADMESKINEKTKMLVINNPHNPTGKLFSRHELEKLAEIAKKHNLIVIADEVYEFHVWDKNDMVRFASLPGMYERTISIGSAGKAFSVTGWKLGWAVGPKQLLEPLKAIHQNCVFTCSTPTQMAIAEAFRLDWPKFLSDPENSYLATGLSGELRAKRDKLAKMLEEGNFRPIIPDAGYFMLADYVHLKEGINLPTEEDPDDFVFSRWLCREKKLAVIPPSAFYSARDNKLKNSNMVRLCYFKKDETLDAAEEILKKLGKQ	not soluble
MTNISIPGNWQTCDVEAMDGDFDDNMLQFLGSFEEVLPEGVEVETKKGMKKKNKPKKVENTERPEEDAKCVEERRLAKKLRRKEQMAANRKQKKERLAKRKQKEAESSAKKSENATETTTEKPKEQKKRKGGENGDTGKPKKSKKEASKKTDISAWKQFYFLPNEVLEAIEQMGFSEPTEIQSAVLPAAVRDRQDVLGAAETGSGKTLAFGIPLVARLLESSDDSQETESTEVRGPRALIVAPTRELVIQIMKHINALISTTQLIATSIVGGLAQVKQERIISQQRPDIVVATPGRLWAMMQEAETGEFLAEWKDLKCLVVDETDRMVEEGYFAELTHILNKIHEESEKEKLQTLVFSATLTFAKAQDVAEEEKKKAKELSSQQKIQRLIKLTGLRENKHKVIDLTRQMGTAGCLVEARINCGNLLEKDTSLVYLLTRYPGRTIVFVNSIDAARRLYSVLKSVNIDPMILHAKMIQKQRLKNLEKFSESKNAVLLATDVAARGLDIQGIDHVIHYQVPKKVEIYIHRSGRTARASHRGLTVVLVDPPSRQFYMKLCKGLNRMQDLNVFPIDFEPLMNAIKKRVRLASEIDSLGFRCKKIKMSESWFEKAARAADLDYDETRHREMDGLNLEVDTMVQKSRQLQAQLRTELSLPLPRVDGSDSMKTKYITPEIVARLRSVGDNAIDVLNQKIDETKEWKRKSRKATREDEMNSMKKSLKSSQKNKERLAEKKKKEKAAKVTKLSETD	not soluble
MGSDKIHHHHHHMPRKPIPALPPLDWLRSFEAAARLSNFTAAAAELGLTQAAVSQHIRLLEERLKTRLFSRLARGVALSPEGAAYLPHIQSAFATISSSTTELFEPRAVQTVSIRVPISFALLILVPALPDLAEALPRIQLDLVTIHRPTDYDLPGSALDIRFGNGSFPGREAGRLTAERLVPVASPALAGAADWTALPLLLVAGAREMWAEWFAAAGLAGHPQRSHRFDSFVAAMEAASAGAGVLLGSRPLVDAALRNRTLVPLSDFELSSSSGHFLTSASTARLTSAEQDFRQWLLGHLSRKAPA	not soluble
ATLKQLDGIHVTILHKEEGAGLGFSLAGGADLENKVITVHRVFPNGLASQEGTIQKGNEVLSINGKSLKGTTHHDALAILRQAREPRQAVIVTRKLTPEAMPDLNS	soluble
MGSDKIHHHHHHMFIGREKELATLNGLYNSDKFEFAVIYGRRRVGKTALISHFIQDKKAIYFMGVESNEKQNLENFSQAIMEYASGIMPGTSFVSFQAAIEYVFKLCENERLVLVIDEYPYVAKASKSMASTLQMLIDKNKDNSKMMLILCGSSMSYMEDNVLAYKAPLYGRRTAQMKILPFDFEDSCKYFNGFSAEDMALIYGIVGGTPQYLLQMNDSMSVEDNIKNVFLNPASAIFEEPENLLKQEVREPAVYNAIITAVATGSSRMSEIATKIGETTSVCSQYMKNLINLGLIRKETPYGEKESRKSIYAIADNMFRFWYRFIPDNNSIISRGATELAYKRIAPNLSDYMGRIFEEICMQYMWKLLLDGESPVEFSNLGRWWGTDPQERIQTEIDIMGDQDKSTVLFGECKWINENVDVKVLEKLKKRSRLFRYENVHLFLFAKKGFTQGCIEEAGKMGNVSLVTYDQIYRYLNNIDLSQ	not soluble
MGSDKIHHHHHHAATLLASCNKDEEETEIQGFKVLEYRPAPGQFINEGFDCQTMEEANAYAEERFNKKLYVSLGSFGGYITVKMPKEIKNRKGYDFGIIGNPFSGSSEPGIVWVSEDANGNGKADDVWYELKGSDEPERDYSVTYHRPDAAGDIPWEDNKGESGIIKYLPQYHDQMYYPNWIKEDSYTLKGSMLEARTEQEGGIWKNKDFGKGYADNWGSDMAKDDNGNYRYNQFDLDDAVDQNGNPVTLERIHFVKVQSAILKNVESIGEVSTEVVGFKAF	not soluble
GHVETIKNTFLNPKSNKVLVVAHRGNWRSAPENSTAAIDSAIAMKVDIVEIDIQKTKDGQLILMHDNTLDRTTTGKGEIKNWTLADIKKLKLKDKDGKVTNYVVPTLEEALLTAKGKIMVNLDKAYDIFDDVYAILEKTETQNQVIMKGGQPIETVKREFGSYLDKVLYMPVIDLGNKEAEKIITDYLKELRPAAFEIIYSDPKNPLPPKIKQLLFKKSLIWYNTLWGSLAGNHDDNLALTDPEKSYGYLIEQLGARILQTDQPAYLLDYLRKKGWHN	soluble
MGSDKIHHHHHHMHSSEIRYFLVVATTGSLSAASQHLFVAVSAISRQIQRLEERIGVPLFERHARGMVLNDAGRILENHVRKSMMDMDAAVAEIQGLKASRRALLRIGCTEGMAFDLLPTLFARFRQHDPDTTFALKVDSAMQVSQMIRNGEVDIALQFALAPEQGVNVELALPAPLMLLMSDEHPLAQQSIQLADLHPFPLALPESSTTLRQLFDLSCRMNGTFLEPTLCCNNFTTLYYYAMSTPGAVTACSFYSVMYKCLQEPMRLKPLNIKQLDQRSLQIQTLAGKAHAPQQQAFLDFMMAELRQGEAYYLSHMATDMV	not soluble
